Assay results reported in patent US20200347127A1 (CRESCENDO BIOLOGICS, published 2020).
Where two headings read alike, the source gives them in different places.

Tests used:
[1] = biological target: T1, recombinant human IL-17A (human, UniProt Q16552 24-155); test: SPR (BIAcore T200), IL-17A coupled to CM5 chip, single-cycle kinetics
T1 construct: Bought recombinant protein (Peprotech AF-200-17); also called Peprotech AF-200-17
Protocol: (§1) VH binding kinetics were then determined from the (blank subtracted) sensorgram traces using 1:1 binding models and BIAevaluation software.

[2] = biological target: T1, recombinant human IL-17A; test: competition ELISA, IL-17A binding to coated IL-17RA-Fc
Protocol: (§2) Following washing of excess coating antigen, as described above, the wells of the plate were incubated with 3% skimmed milk powder/PBS to block non-specific protein interactions. […] The mixture was then transferred to the assay plate and incubated for 1 hour at room temperature.
(§3) Where appropriate, curve fitting in PRISM was used to determine the EC₅₀ of inhibiting VH.

[3] = biological target: T1, recombinant human IL-17A; test: cell-based or functional assay
[4] = biological target: T1, recombinant human IL-17A; test: SPR (BIAcore T200), IL-17A coupled to CM5 chip, single-cycle kinetics; remark: listed apart in the source
Protocol: as §1

[5] = biological target: T1, recombinant human IL-17A; test: competition ELISA, IL-17A binding to coated IL-17RA-Fc (FIG. 9B); FIG. 9B
Protocol: as §2, §3

[6] = biological target: T2, IL-17F (UniProt Q96PD4 31-163, limits assumed); test: specificity ELISA on coated antigen, VH concentration not given
T2 sequence (looked up): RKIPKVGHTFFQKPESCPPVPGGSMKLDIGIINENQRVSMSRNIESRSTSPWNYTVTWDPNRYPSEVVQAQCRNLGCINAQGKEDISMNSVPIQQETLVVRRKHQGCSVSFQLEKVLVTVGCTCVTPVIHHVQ

[7] = biological target: T3, IL-17C (UniProt Q9P0M4 19-197, limits assumed); test: as above
T3 sequence (looked up): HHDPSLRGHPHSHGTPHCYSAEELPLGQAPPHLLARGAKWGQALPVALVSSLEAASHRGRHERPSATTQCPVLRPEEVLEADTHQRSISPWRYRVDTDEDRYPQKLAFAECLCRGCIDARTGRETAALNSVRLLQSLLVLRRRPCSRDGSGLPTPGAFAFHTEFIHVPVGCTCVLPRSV

[8] = biological target: T4, IL17E; test: as above
T4 construct: also called IL-25
T4 chain: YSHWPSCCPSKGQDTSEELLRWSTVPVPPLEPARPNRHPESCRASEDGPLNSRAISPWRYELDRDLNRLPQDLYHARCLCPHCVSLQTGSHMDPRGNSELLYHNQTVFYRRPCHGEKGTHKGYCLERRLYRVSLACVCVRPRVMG

[9] = biological target: T1, recombinant human IL-17A; test: cell-based or functional assay; remark: listed apart in the source

T1 sequence (Q16552 24-155): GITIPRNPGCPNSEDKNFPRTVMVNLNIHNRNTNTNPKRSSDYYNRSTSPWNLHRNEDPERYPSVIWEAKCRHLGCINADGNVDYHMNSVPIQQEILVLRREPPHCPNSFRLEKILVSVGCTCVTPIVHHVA

B1: VH 1.1.1 (clone 1.1 expressed from phagemid vector: with linker residues and His tag) (VHH)
VHH: EVQLVESGGGLVQPGGSLRLSCAASGFTFSSYSMYWVRQAPGKGLEWVANIKQDGSEKYYVDSVKGRFTISRDNAKNSLFLQMNSLRAEDTAVYYCAKGEILPLHFDYWGQGTLVTVSS
notes: Human single VH domain; also called Family 1 (clone 1.1)
In the case of B1, the Kd [1] is reported as 5 nM, the koff [1] is reported as 0.00149 s⁻¹ and the kon [1] is reported as 296000 M⁻¹ s⁻¹. The IC50 [2] was 53 nM, the “Cell assay IC50 (nM), IL-17A-induced IL6 release from HT1080” value [3] was 13 nM and the Kd [4] was 5 nM. For the same binder, the koff [4] was 0.00149 s⁻¹, the kon [4] was 296000 M⁻¹ s⁻¹ and the IC50 [5] was 29 nM. B1: no binding [6]; no binding [7]; no binding [8]. The “Cell assay IC50 (nM), IL-17A-induced IL6 release from HT1080” value [9] was 13 nM.
